Test results published in patent US20220177587A1, “METHODS AND USES OF VARIANT CD80 FUSION PROTEINS AND RELATED CONSTRUCTS” (Alpine Immune Sciences, Inc., priority 2018, published 2022).

Columns and labels:
[1] = biological target: huCTLA4 (Homo sapiens, UniProt P16410); experiment: Flow binding to CHO cells stably expressing CTLA4; parameters: huCTLA4 and huPD-L1, full-length mammalian surface expression constructs were generated; expressed in transfected cells; host or cells: CHO cells, lentiviral transduction, sorted to >98% purity; conditions: 33.3 nM, CHO cells stably expressing CTLA4
Protocol: (§1) Binding of selected immunomodulatory fusion proteins to cognate binding partners was assessed. […] Cells were sorted in a Bio-Rad S3 Cell Sorter (Bio-Rad Corp., USA) to >98% purity. Jurkat/IL2 reporter cells, which endogenously express CD28, were used to detect binding to CD28.
(§2) For staining and analysis by flow cytometry, 100,000 cells of appropriate transfected cells were plated in 96-well round bottom plates. Cells were spun down and resuspended in staining buffer (phosphate buffered saline (PBS), 1% bovine serum albumin (BSA), and 0.1% sodium azide) for 20 minutes to block non-specific binding. […] Primary staining was performed on ice for 45 minutes, before washing cells in staining buffer twice. Phycoerythrin (PE)-conjugated anti-human Fc (Jackson ImmunoResearch, USA) was diluted 1:150, added to cells and incubated another 30 minutes on ice. Cells were then washed twice with 150 μL/well stain buffer, fixed in 2% formaldehyde/PBS, and analyzed on Intellicyt flow cytometer (Intellicyt Corp., USA). PE Mean Fluorescence Intensity (MFI) was calculated for each cell type with FlowJo Version 10 software (FlowJo LLC, USA).
(§3) Binding assays were carried out to assess the specificity and affinity of multivalent proteins to cell-expressed CTLA-4, CD28, and PD-L1 counter structures.
(§4) The EC50 for binding also was determined.

[2] = biological target: CD28 (Homo sapiens, UniProt P10747); experiment: Jurkat/IL2 + CHO/OKT3 +/- PD-L1 reporter assay: PD-L1-dependent CD28 costimulation; format: cell-based; parameters: host or cells: Jurkat cells expressing an IL-2-luciferase reporter; conditions: Jurkat/IL2 + CHO/OKT3/PD-L1
Protocol: Jurkat cells were then plated at 50 μL/well for a total of 100,000 cells per well.
To each well, 25 μL of test protein was added to the Jurkat cells. […] The Jurkat cells with test or control proteins were incubated for 15 minutes at room temperature. CHO-derived artificial antigen presenting cells (aAPC) displaying transduced cell surface anti-CD3 single chain Fv (OKT3) (i.e., no PD-L1), or OKT3 and PD-L1 (i.e., +PD-L1), were brought to 0.8×10^6 cells/mL, and 25 μL of cells were added to each well, bringing the final volume of each well to 100 μL. […] Jurkat cells and CHO cells were incubated for 5 hours at 37 degrees Celsius in a humidified 5% CO2 incubation chamber. Plates were then removed from the incubator and acclimated to room temperature for 15 minutes. 100 μL of a cell lysis and luciferase substrate solution (BioGlo luciferase reagent, Promega) were added to each well and the plates were incubated on an orbital shaker for 10 minutes. Luminescence was measured with a 1 second per well integration time using a BioTek Cytation luminometer, and a relative luminescence value (RLU) was determined for each test sample.

[3] = biological target: huPD-L1 (Homo sapiens, UniProt Q9NZQ7); experiment: Flow binding to CHO cells stably expressing PD-L1; parameters: huCTLA4 and huPD-L1, full-length mammalian surface expression constructs were generated; expressed in transfected cells; host or cells: CHO cells, lentiviral transduction, sorted to >98% purity; conditions: CHO cells stably expressing PD-L1, 33.3 nM
Protocol: as §1, §2, §3, §4

Sequence of huPD-L1 (Q9NZQ7 19-290): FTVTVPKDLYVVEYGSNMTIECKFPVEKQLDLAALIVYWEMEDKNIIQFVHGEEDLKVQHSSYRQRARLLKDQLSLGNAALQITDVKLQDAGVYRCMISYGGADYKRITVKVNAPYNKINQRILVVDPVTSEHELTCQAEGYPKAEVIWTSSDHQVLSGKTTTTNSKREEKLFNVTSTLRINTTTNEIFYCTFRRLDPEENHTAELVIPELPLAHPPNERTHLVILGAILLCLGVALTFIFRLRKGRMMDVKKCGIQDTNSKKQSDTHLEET
Sequence of huCTLA4 (P16410 36-223): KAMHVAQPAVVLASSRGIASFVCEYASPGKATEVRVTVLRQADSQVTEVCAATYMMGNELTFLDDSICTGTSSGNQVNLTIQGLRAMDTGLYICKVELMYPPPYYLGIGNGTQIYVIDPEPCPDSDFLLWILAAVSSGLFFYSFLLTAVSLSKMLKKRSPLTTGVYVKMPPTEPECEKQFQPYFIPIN

Molecule	CTLA4 MFI at 33.3 nM ([1]; Table E19)	PD-L1 MFI at 33.3 nM ([3]; Table E19)	Relative Luciferase Units (RLU), CD80 Conc 5.0 nM ([2]; Table E21) [RLU]	further results
E35D/M43I/M47L/L85M (protein) VIHVTKEVKEVATLSCGHNVSVEELAQTRIYWQKDKKMVLTMISGDLNIWPEYKNRTIFDITNNLSIVILALRPSDEGTYECVVMKYEKDAFKREHLAEVTLSVKAD				CTLA4 MFI at 33.3 nM ([1]; Table E10): 24584; Relative Luciferase Units (RLU), CD80 Cone 5.0 nM ([2]; Table E12): 1427 RLU
E35D/M47L/A71G (protein) VIHVTKEVKEVATLSCGHNVSVEELAQTRIYWQKDKKMVLTMMSGDLNIWPEYKNRTIFDITNNLSIVILGLRPSDEGTYECVVLKYEKDAFKREHLAEVTLSVKAD				CTLA4 MFI at 33.3 nM ([1]; Table E10): 20576; Relative Luciferase Units (RLU), CD80 Cone 5.0 nM ([2]; Table E12): 1954 RLU
E35D/D46V/V68M (protein) VIHVTKEVKEVATLSCGHNVSVEELAQTRIYWQKDKKMVLTMMSGVMNIWPEYKNRTIFDITNNLSIMILALRPSDEGTYECVVLKYEKDAFKREHLAEVTLSVKAD	31195	26114	799	
E35D/M47V/N48K/V68M (protein) VIHVTKEVKEVATLSCGHNVSVEELAQTRIYWQKDKKMVLTMMSGDVKIWPEYKNRTIFDITNNLSIMILALRPSDEGTYECVVLKYEKDAFKREHLAEVTLSVKAD	32913	23479	747	
E35D/D46V/V68M/L85Q (protein) VIHVTKEVKEVATLSCGHNVSVEELAQTRIYWQKDKKMVLTMMSGVMNIWPEYKNRTIFDITNNLSIMILALRPSDEGTYECVVQKYEKDAFKREHLAEVTLSVKAD	32176		864	
E35D/M47V/N48K (protein) VIHVTKEVKEVATLSCGHNVSVEELAQTRIYWQKDKKMVLTMMSGDVKIWPEYKNRTIFDITNNLSIVILALRPSDEGTYECVVLKYEKDAFKREHLAEVTLSVKAD	47430	4852	561	
E35D/D46V/M47L (protein) VIHVTKEVKEVATLSCGHNVSVEELAQTRIYWQKDKKMVLTMMSGVLNIWPEYKNRTIFDITNNLSIVILALRPSDEGTYECVVLKYEKDAFKREHLAEVTLSVKAD	44977	7988	746	
H18Y/M47L/A71G/D90G (protein) VIHVTKEVKEVATLSCGYNVSVEELAQTRIYWQKEKKMVLTMMSGDLNIWPEYKNRTIFDITNNLSIVILGLRPSDEGTYECVVLKYEKGAFKREHLAEVTLSVKAD				CTLA4 MFI at 33.3 nM ([1]; Table E20): 18162; Relative Luciferase Units (RLU), CD80 Conc 5.0 nM ([2]; Table E22): 675 RLU
E35D/D46V/M47L/V68M (protein) VIHVTKEVKEVATLSCGHNVSVEELAQTRIYWQKDKKMVLTMMSGVLNIWPEYKNRTIFDITNNLSIMILALRPSDEGTYECVVLKYEKDAFKREHLAEVTLSVKAD	34319		681	
E35D/D46E/M47V/V68M/L85Q (protein, UniProt P33681 35-288, looked up, variant E35D D46E M47V V68M L85Q) T-lymphocyte activation …: VIHVTKEVKEVATLSCGHNVSVEELAQTRIYWQKDKKMVLTMMSGEVNIWPEYKNRTIFDITNNLSIMILALRPSDEGTYECVVQKYEKDAFKREHLAEVTLSVKADFPTPSISDFEIPTSNIRRIICSTSGGFPEPHLSWLENGEELNAINTTVSQDPETELYAVSSKLDFNMTTNHSFMCLIKYGHLRVNQTFNWNTTKQEHFPDNLLPSWAITLISVNGIFVICCLTYCFAPRCRERRRNERLRRESVRPV				CTLA4 MFI at 33.3 nM ([1]; Table E11): 15533; Relative Luciferase Units (RLU), CD80 Cone 5.0 nM ([2]; Table E13): 1006 RLU; PD-L1 MFI at 33.3 nM ([3]; Table E11): 1723
H18Y/E35D/V68M/A71G/R94Q/E95V (protein, UniProt P33681 35-288, looked up, variant H18Y E35D V68M A71G R94Q E95V, Fc fusion) T-lymphocyte activation …: VIHVTKEVKEVATLSCGYNVSVEELAQTRIYWQKDKKMVLTMMSGDMNIWPEYKNRTIFDITNNLSIMILGLRPSDEGTYECVVLKYEKDAFKQVHLAEVTLSVKADFPTPSISDFEIPTSNIRRIICSTSGGFPEPHLSWLENGEELNAINTTVSQDPETELYAVSSKLDFNMTTNHSFMCLIKYGHLRVNQTFNWNTTKQEHFPDNLLPSWAITLISVNGIFVICCLTYCFAPRCRERRRNERLRRESVRPV				CTLA4 MFI at 33.3 nM ([1]; Table E11): 18281; CTLA4 MFI at 33.3 nM ([1]; Table E16, consensus variants): 19396; Relative Luciferase Units (RLU), CD80 Cone 5.0 nM ([2]; Table E13): 183 RLU; Relative Luciferase Units (RLU), CD80 Cone 5.0 nM ([2]; Table E17, consensus variants): 1968 RLU
E35D/M47V/V68M/L85M/Y87D (protein, UniProt P33681 35-288, looked up, variant E35D M47V V68M L85M Y87D) T-lymphocyte activation …: VIHVTKEVKEVATLSCGHNVSVEELAQTRIYWQKDKKMVLTMMSGDVNIWPEYKNRTIFDITNNLSIMILALRPSDEGTYECVVMKDEKDAFKREHLAEVTLSVKADFPTPSISDFEIPTSNIRRIICSTSGGFPEPHLSWLENGEELNAINTTVSQDPETELYAVSSKLDFNMTTNHSFMCLIKYGHLRVNQTFNWNTTKQEHFPDNLLPSWAITLISVNGIFVICCLTYCFAPRCRERRRNERLRRESVRPV				CTLA4 MFI at 33.3 nM ([1]; Table E11): 13936; Relative Luciferase Units (RLU), CD80 Cone 5.0 nM ([2]; Table E13): 1181 RLU; PD-L1 MFI at 33.3 nM ([3]; Table E11): 1721

Second part, led by results:

CTLA4 MFI at 33.3 nM ([1]; Table E19)	PD-L1 MFI at 33.3 nM ([3]; Table E19)	Relative Luciferase Units (RLU), CD80 Conc 5.0 nM ([2]; Table E21) [RLU]	Molecule	further results
19129	11464		N48K/V68M/K89N (protein) VIHVTKEVKEVATLSCGHNVSVEELAQTRIYWQKEKKMVLTMMSGDMKIWPEYKNRTIFDITNNLSIMILALRPSDEGTYECVVLKYENDAFKREHLAEVTLSVKAD	
2330		100	V68M/K89N (protein) VIHVTKEVKEVATLSCGHNVSVEELAQTRIYWQKEKKMVLTMMSGDMNIWPEYKNRTIFDITNNLSIMILALRPSDEGTYECVVLKYENDAFKREHLAEVTLSVKAD	
29493	21827	779	E35D/M47V/V68M/K89N (protein) VIHVTKEVKEVATLSCGHNVSVEELAQTRIYWQKDKKMVLTMMSGDVNIWPEYKNRTIFDITNNLSIMILALRPSDEGTYECVVLKYENDAFKREHLAEVTLSVKAD	
24838		537	E35D/V68M/K89N (protein) VIHVTKEVKEVATLSCGHNVSVEELAQTRIYWQKDKKMVLTMMSGDMNIWPEYKNRTIFDITNNLSIMILALRPSDEGTYECVVLKYENDAFKREHLAEVTLSVKAD	
7567		267	D46V/V68M/L85Q (protein) VIHVTKEVKEVATLSCGHNVSVEELAQTRIYWQKEKKMVLTMMSGVMNIWPEYKNRTIFDITNNLSIMILALRPSDEGTYECVVQKYEKDAFKREHLAEVTLSVKAD	
